T1: cynoFcγRIIb (Macaca fascicularis, UniProt A0A140HDP4)
T1 construct: extracellular region, C-terminal His- and GST-tag; also called cynomolgus monkey FcγRIIb
T1 sequence (receptor extracellular region): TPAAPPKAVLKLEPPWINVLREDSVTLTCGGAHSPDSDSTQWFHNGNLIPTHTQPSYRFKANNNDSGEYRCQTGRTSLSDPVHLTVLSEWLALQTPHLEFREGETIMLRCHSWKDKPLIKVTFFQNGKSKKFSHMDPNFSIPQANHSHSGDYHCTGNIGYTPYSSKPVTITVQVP

T2: mFcγRIIb (Mus musculus, UniProt P08101)
T2 construct: extracellular region, C-terminal His- and GST-tag; also called mouse FcγRII
T2 sequence (receptor extracellular region, looked up): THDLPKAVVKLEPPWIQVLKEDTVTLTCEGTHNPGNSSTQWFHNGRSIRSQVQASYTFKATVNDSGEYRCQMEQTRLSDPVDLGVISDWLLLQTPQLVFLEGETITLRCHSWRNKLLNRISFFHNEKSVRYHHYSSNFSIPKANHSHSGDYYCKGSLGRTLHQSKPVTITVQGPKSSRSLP

T3: mFcγRIV
T3 construct: also called mouse FcγRIV; not shown: C-terminal His and GST tags (named only on our card)
T3 chain: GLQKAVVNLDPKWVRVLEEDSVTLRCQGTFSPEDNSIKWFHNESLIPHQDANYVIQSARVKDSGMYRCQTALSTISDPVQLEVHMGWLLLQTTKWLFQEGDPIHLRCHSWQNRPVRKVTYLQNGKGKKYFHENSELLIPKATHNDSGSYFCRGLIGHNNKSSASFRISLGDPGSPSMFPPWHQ

T4: human FcγRIIb receptor protein (R&D Systems) (human, UniProt P31994 46-217)
T4 construct: Bought protein injected over captured antibody in Biacore; also called CD32b
T4 sequence (looked up): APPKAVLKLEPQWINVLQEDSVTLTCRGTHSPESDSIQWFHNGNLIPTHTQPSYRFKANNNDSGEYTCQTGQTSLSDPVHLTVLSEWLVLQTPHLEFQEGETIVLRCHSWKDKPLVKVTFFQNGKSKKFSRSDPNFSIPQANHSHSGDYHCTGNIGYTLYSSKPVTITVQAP

T5: human FcγRIIa (131H), His- and GST-tagged (human, UniProt P12318 34-217)
T5 construct: also called H131 FcγRIIa; HIIa; not shown: 6xHis and GST tags of the pTT5 vector
T5 sequence (looked up): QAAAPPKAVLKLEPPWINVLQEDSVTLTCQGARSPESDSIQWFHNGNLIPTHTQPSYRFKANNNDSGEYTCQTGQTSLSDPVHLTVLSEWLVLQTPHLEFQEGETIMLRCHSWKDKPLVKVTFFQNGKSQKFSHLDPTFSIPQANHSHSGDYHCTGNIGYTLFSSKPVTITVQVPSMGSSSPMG

T6: human FcγRIIa (131R), His- and GST-tagged (human, UniProt P12318 34-217)
T6 construct: Expressed in HEK293T cells, purified by nickel chromatography; also called R131 FcγRIIa; not shown: 6xHis and GST tags of the pTT5 vector
T6 sequence (looked up): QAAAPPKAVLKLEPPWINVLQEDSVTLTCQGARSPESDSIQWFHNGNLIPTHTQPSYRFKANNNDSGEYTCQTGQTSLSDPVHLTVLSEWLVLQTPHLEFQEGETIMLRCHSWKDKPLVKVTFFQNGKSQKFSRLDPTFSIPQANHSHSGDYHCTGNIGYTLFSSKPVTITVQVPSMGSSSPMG


Tests used:
[1] = target: T1, cynoFcγRIIb; assay: SPR
[2] = target: T2, mFcγRIIb; assay: SPR, off-rate
Experimental: (§1) Variants were screened for receptor affinity using Biacore™ technology, also referred to as Biacore herein, a surface plasmon resonance (SPR) based technology for studying biomolecular interactions in real time. SPR measurements were performed using a Biacore 3000 instrument (Biacore, Piscataway, N.J.). A protein A/G (Pierce Biotechnology) CM5 biosensor chip (Biacore) was generated using a standard primary amine coupling protocol. All measurements were performed using HBS-EP buffer (10 mM HEPES pH 7.4, 0.15 M NaCl, 3 mM EDTA, 0.005% vol/vol surfactant P20, Biacore). Antibodies at 20 nM or 50 nM in HBS-EP buffer were immobilized on the protein A/G surface and FcγRs were injected. After each cycle, the surface was regenerated by injecting glycine buffer (10 mM, pH 1.5). Data were processed by zeroing time and response before the injection of FcγR and by subtracting appropriate nonspecific signals (response of reference channel and injection of running buffer). Kinetic analyses were performed by global fitting of binding data with a 1:1 Langmuir binding model using BIAevaluation software (Biacore).
(§2) Variant antibodies were tested for their affinity to mouse or cynologous monkey FcγRs using Biacore SPR as described above. Specifically, antibodies were first immobilized on a protein A/G chip to high density, and then followed by injections of the extracellular domain of the mouse or cynologous monkey FcγR of interest. Both association and dissociation phases were tracked in real time using the Biacore technology.

[3] = target: T3, mFcγRIV; assay: SPR, off-rate
Experimental: as §1, §2

[4] = target: T7, cynoFcγRIIIa (Macaca fascicularis, UniProt Q8SPW2); assay: SPR, off-rate
T7 construct: extracellular region, C-terminal His- and GST-tag; also called cynomolgus monkey FcγRIIIa
T7 sequence (Q8SPW2 17-208): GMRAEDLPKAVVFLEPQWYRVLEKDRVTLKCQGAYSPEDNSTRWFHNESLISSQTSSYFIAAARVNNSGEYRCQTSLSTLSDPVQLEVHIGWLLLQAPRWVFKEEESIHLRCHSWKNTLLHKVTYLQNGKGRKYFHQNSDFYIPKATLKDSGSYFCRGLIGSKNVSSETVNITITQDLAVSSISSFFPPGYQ
Experimental: as §1, §2

[5] = target: T4, human FcγRIIb receptor protein (R&D …); assay: SPR
[6] = target: T8, human FcγRI receptor protein (R&D Systems) (human, UniProt P12314 16-288); assay: SPR
T8 construct: also called soluble FcγRI; solFcγRI
T8 sequence (P12314 16-288 limits assumed): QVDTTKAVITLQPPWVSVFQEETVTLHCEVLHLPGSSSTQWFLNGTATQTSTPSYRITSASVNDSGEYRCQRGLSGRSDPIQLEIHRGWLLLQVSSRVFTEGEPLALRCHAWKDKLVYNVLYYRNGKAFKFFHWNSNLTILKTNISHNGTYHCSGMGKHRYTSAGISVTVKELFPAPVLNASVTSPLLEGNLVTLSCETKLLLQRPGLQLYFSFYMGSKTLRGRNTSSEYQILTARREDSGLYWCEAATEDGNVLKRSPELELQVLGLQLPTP

[7] = target: T5, human FcγRIIa (131H), His- and …; assay: SPR
[8] = target: T6, human FcγRIIa (131R), His- and …; assay: SPR
[9] = target: T9, human FcγRIIIa (158V), His- and GST-tagged (human, UniProt P08637 17-208); assay: SPR
T9 construct: also called V158 FcγRIIIa; VIIIa; not shown: 6xHis and GST tags of the pTT5 vector
T9 sequence (P08637 17-208 F176V): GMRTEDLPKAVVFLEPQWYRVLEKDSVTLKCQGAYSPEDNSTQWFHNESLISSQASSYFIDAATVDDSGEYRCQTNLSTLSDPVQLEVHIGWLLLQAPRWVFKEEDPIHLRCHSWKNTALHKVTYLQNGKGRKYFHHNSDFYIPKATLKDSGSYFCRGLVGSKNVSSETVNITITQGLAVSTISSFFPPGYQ

[10] = target: T1, cynoFcγRIIb; assay: SPR, off-rate
Experimental: as §1, §2

[11] = target: T2, mFcγRIIb; assay: SPR
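For Fold vs WT IgG1 (off-rate) in this document: fold improvement over WT IgG1 so higher means slower dissociation than WT.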

| Fold vs WT IgG1 (off-rate) [1] | binding result [2] | binding result [3] | binding result [4] | Fold vs WT IgG1 [5] | Kd [5] | Fold vs WT IgG1 [6] | Kd [6] | binding result [7] | Fold vs WT IgG1 [8] | Kd [8] | binding result [9] | binding result [10] | Fold vs WT IgG1 (off-rate) [11] | binding result [5] | binding result [8] | Binder |
| --- | --- | --- | --- | --- | --- | --- | --- | --- | --- | --- | --- | --- | --- | --- | --- | --- |
| 0.587 fold | no binding | no binding | no binding | 19.8 fold | 0.0742 µM | 0.0355 fold | 0.00927 µM | no binding | 3.27 fold | 0.263 µM | no binding |  |  |  |  | G236N/S267E (antibody, human IgG1, kappa, HuAM4G7 anti-CD19 IgG1 (m1) with these Fc substitutions, EU index; copies: 2 + 2) heavy: not shown light: DIVMTQSPATLSLSPGERATLSCRSSKSLQNVNGNTYLYWFQQKPGQSPQLLIYRMSNLNSGVPDRFSGSGSGTEFTLTISSLEPEDFAVYYCMQHLEYPITFGAGTKLEIKRTVAAPSVFIFPPSDEQLKSGTASVVCLLNNFYPREAKVQWKVDNALQSGNSQESVTEQDSKDSTYSLSSTLTLSKADYEKHKVYACEVTHQGLSSPVTKSFNRGEC |
|  | no binding | no binding | no binding | 0.0147 fold | 100 µM |  |  |  | 0.00859 fold | 100 µM |  | no binding |  |  |  | G237E (antibody, human IgG1, kappa, HuAM4G7 anti-CD19 IgG1 (m1) with this Fc substitution, EU index; copies: 2 + 2) heavy: not shown light: DIVMTQSPATLSLSPGERATLSCRSSKSLQNVNGNTYLYWFQQKPGQSPQLLIYRMSNLNSGVPDRFSGSGSGTEFTLTISSLEPEDFAVYYCMQHLEYPITFGAGTKLEIKRTVAAPSVFIFPPSDEQLKSGTASVVCLLNNFYPREAKVQWKVDNALQSGNSQESVTEQDSKDSTYSLSSTLTLSKADYEKHKVYACEVTHQGLSSPVTKSFNRGEC |
| 0.42 fold |  | no binding | no binding | 5.17 fold | 0.284 µM |  |  |  | 4.64 fold | 0.185 µM |  |  | 1.11 fold |  |  | S267E/L328H (antibody, human IgG1, kappa, HuAM4G7 anti-CD19 IgG1 (m1) with these Fc substitutions, EU index; copies: 2 + 2) heavy: not shown light: DIVMTQSPATLSLSPGERATLSCRSSKSLQNVNGNTYLYWFQQKPGQSPQLLIYRMSNLNSGVPDRFSGSGSGTEFTLTISSLEPEDFAVYYCMQHLEYPITFGAGTKLEIKRTVAAPSVFIFPPSDEQLKSGTASVVCLLNNFYPREAKVQWKVDNALQSGNSQESVTEQDSKDSTYSLSSTLTLSKADYEKHKVYACEVTHQGLSSPVTKSFNRGEC |
|  | no binding | no binding | no binding | 0.0147 fold | 100 µM |  |  |  | 0.00859 fold | 100 µM |  | no binding |  |  |  | G236R (antibody, human IgG1, kappa, HuAM4G7 anti-CD19 IgG1 (m1) with this Fc substitution, EU index; copies: 2 + 2) heavy: not shown light: DIVMTQSPATLSLSPGERATLSCRSSKSLQNVNGNTYLYWFQQKPGQSPQLLIYRMSNLNSGVPDRFSGSGSGTEFTLTISSLEPEDFAVYYCMQHLEYPITFGAGTKLEIKRTVAAPSVFIFPPSDEQLKSGTASVVCLLNNFYPREAKVQWKVDNALQSGNSQESVTEQDSKDSTYSLSSTLTLSKADYEKHKVYACEVTHQGLSSPVTKSFNRGEC |
|  | no binding | no binding | no binding | 0.0147 fold | 100 µM |  |  |  | 0.00859 fold | 100 µM |  | no binding |  |  |  | G237K (antibody, human IgG1, kappa, HuAM4G7 anti-CD19 IgG1 (m1) with this Fc substitution, EU index; copies: 2 + 2) heavy: not shown light: DIVMTQSPATLSLSPGERATLSCRSSKSLQNVNGNTYLYWFQQKPGQSPQLLIYRMSNLNSGVPDRFSGSGSGTEFTLTISSLEPEDFAVYYCMQHLEYPITFGAGTKLEIKRTVAAPSVFIFPPSDEQLKSGTASVVCLLNNFYPREAKVQWKVDNALQSGNSQESVTEQDSKDSTYSLSSTLTLSKADYEKHKVYACEVTHQGLSSPVTKSFNRGEC |
|  | no binding | no binding | no binding | 0.147 fold | 10 µM |  |  |  | 0.081 fold | 10.6 µM |  | no binding |  |  |  | G237S (antibody, human IgG1, kappa, HuAM4G7 anti-CD19 IgG1 (m1) with this Fc substitution, EU index; copies: 2 + 2) heavy: not shown light: DIVMTQSPATLSLSPGERATLSCRSSKSLQNVNGNTYLYWFQQKPGQSPQLLIYRMSNLNSGVPDRFSGSGSGTEFTLTISSLEPEDFAVYYCMQHLEYPITFGAGTKLEIKRTVAAPSVFIFPPSDEQLKSGTASVVCLLNNFYPREAKVQWKVDNALQSGNSQESVTEQDSKDSTYSLSSTLTLSKADYEKHKVYACEVTHQGLSSPVTKSFNRGEC |
|  | no binding | no binding | no binding | 0.147 fold | 10 µM |  |  |  | 0.0859 fold | 10 µM |  | no binding |  |  |  | G236P (antibody, human IgG1, kappa, HuAM4G7 anti-CD19 IgG1 (m1) with this Fc substitution, EU index; copies: 2 + 2) heavy: not shown light: DIVMTQSPATLSLSPGERATLSCRSSKSLQNVNGNTYLYWFQQKPGQSPQLLIYRMSNLNSGVPDRFSGSGSGTEFTLTISSLEPEDFAVYYCMQHLEYPITFGAGTKLEIKRTVAAPSVFIFPPSDEQLKSGTASVVCLLNNFYPREAKVQWKVDNALQSGNSQESVTEQDSKDSTYSLSSTLTLSKADYEKHKVYACEVTHQGLSSPVTKSFNRGEC |
| 0.703 fold | no binding | no binding | no binding | 0.0147 fold | 100 µM |  |  |  | 0.106 fold | 8.08 µM |  |  |  |  |  | G236V (antibody, human IgG1, kappa, HuAM4G7 anti-CD19 IgG1 (m1) with this Fc substitution, EU index; copies: 2 + 2) heavy: not shown light: DIVMTQSPATLSLSPGERATLSCRSSKSLQNVNGNTYLYWFQQKPGQSPQLLIYRMSNLNSGVPDRFSGSGSGTEFTLTISSLEPEDFAVYYCMQHLEYPITFGAGTKLEIKRTVAAPSVFIFPPSDEQLKSGTASVVCLLNNFYPREAKVQWKVDNALQSGNSQESVTEQDSKDSTYSLSSTLTLSKADYEKHKVYACEVTHQGLSSPVTKSFNRGEC |
|  | no binding | no binding | no binding |  |  |  |  |  |  |  |  | no binding |  | no binding | no binding | G237H (antibody, human IgG1, kappa, HuAM4G7 anti-CD19 IgG1 (m1) with this Fc substitution, EU index; copies: 2 + 2) heavy: not shown light: DIVMTQSPATLSLSPGERATLSCRSSKSLQNVNGNTYLYWFQQKPGQSPQLLIYRMSNLNSGVPDRFSGSGSGTEFTLTISSLEPEDFAVYYCMQHLEYPITFGAGTKLEIKRTVAAPSVFIFPPSDEQLKSGTASVVCLLNNFYPREAKVQWKVDNALQSGNSQESVTEQDSKDSTYSLSSTLTLSKADYEKHKVYACEVTHQGLSSPVTKSFNRGEC |
